Molecular target: γ-tubulin ring complex (γ-TuRC) purified using GCP3-GFP-SII (human (endogenous in HEK293T)) (UniProt Q96CW5)
Test: single-molecule colocalisation by TIRF microscopy

% of CDK5RAP2-positive dots colocalizing with γ-TuRCs, with tubulin: 13% | % of CDK5RAP2-positive dots colocalizing with γ-TuRCs, without tubulin: 41%
Substance: mCherry-CDK5RAP2 (full-length, human) (from UniProt Q96SN8 1-1893) (natural protein)

Source: paper doi:10.1101/2022.08.03.502613
